From article PMC9009071, “Pyruvate kinase, a metabolic sensor powering glycolysis, drives the metabolic control of DNA replication” (BMC Biology, 2022)

Tests used:
PykA = biological target: T1, PykA (Bacillus subtilis, UniProt P80885); assay: LDH-coupled NADH oxidation at […] nm, Michaelis-Menten fit; assay type: biochemical; conditions: 2 mM ADP, 10 mM MgCl2, 50 mM KCl, 10 mM Tris-HCl pH 7.5, 25 °C; no effector added
T1 construct: gene pyk; full length, 585 residues (1755 bp); N-terminal His-MBP tag removed by TEV; E. coli Rosetta(DE3); homotetramer
T1 sequence (P80885 2-585): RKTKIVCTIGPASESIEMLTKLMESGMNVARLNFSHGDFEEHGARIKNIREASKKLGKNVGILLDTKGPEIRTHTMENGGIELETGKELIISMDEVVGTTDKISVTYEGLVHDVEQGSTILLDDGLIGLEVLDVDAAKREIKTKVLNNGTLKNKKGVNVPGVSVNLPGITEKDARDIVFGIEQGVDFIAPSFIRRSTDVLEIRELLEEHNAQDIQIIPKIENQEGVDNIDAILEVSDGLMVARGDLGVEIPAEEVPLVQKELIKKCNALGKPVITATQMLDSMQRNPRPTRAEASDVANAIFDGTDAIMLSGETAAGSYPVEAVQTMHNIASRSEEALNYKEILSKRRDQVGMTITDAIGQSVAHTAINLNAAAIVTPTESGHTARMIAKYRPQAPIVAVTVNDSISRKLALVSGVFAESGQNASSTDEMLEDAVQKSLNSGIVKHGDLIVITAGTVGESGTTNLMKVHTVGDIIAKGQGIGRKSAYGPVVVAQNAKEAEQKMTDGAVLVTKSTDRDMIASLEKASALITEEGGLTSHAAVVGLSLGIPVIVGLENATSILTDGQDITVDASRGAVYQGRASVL

PykA (pyruvate kinase) = biological target: T2, PykA (pyruvate kinase) (Bacillus subtilis, UniProt P80885 1-585); assay: EMSA; 1,250 nM PykA tetramer, 1 nM DNA, 10 mM Mg2+, no DnaE; EMSA: 50 mM Tris-HCl pH 7.5, 50 mM NaCl, 10 mM MgCl2, 10 min at 37 °C, 1 nM DNA; conditions: protein: recombinant; tags: none (N-terminal His-MBP removed by TEV); chain copies: 4; label: 5'-32P on the 15mer; 15mer pairs with the 3' half of the 30mer; template 5' overhang 15 nt
T2 sequence: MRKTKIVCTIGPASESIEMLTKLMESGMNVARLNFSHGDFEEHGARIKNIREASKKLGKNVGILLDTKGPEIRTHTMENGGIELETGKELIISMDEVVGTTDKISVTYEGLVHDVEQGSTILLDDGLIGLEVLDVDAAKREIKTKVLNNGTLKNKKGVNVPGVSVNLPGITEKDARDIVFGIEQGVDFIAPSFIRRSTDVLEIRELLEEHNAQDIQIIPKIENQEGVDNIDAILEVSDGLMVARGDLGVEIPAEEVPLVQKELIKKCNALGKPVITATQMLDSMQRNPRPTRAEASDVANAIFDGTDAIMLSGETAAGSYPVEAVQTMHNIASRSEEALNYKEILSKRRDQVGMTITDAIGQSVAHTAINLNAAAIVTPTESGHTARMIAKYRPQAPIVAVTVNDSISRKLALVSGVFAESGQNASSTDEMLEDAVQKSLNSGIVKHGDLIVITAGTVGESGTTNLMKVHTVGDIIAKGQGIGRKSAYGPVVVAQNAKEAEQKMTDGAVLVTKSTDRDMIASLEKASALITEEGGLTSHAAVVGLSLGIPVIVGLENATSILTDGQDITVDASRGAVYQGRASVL

[1] = biological target: the molecule itself; assay: native MS; purified PykA, 4 uM, in 200 mM ammonium acetate pH 6.8; nano-electrospray on a modified Q-Tof; self-association (tetramer)
purified protein = substrate: C=C(OP(=O)(O)O)C(=O)O; assay: purified protein; assay type: biochemical, Bacillus subtilis; conditions: 2 mM ADP, 10 mM MgCl2, 50 mM KCl, 10 mM Tris-HCl pH 7.5, 25 °C, no effector added, Hill coefficient n = 0.8111

In the case of C=C(OP(=O)(O)O)C(=O)O [PEP], the Km (PykA) is reported as 1700 µM.

B1: 15mer primer annealed to 30mer template (dsDNA)
DNA 1: AAGGGGGTGTGTGTG
DNA 2: ACACACACACACACACACACACACCCCCTT
B1: no binding (PykA (pyruvate kinase)).

B2: Bacillus subtilis pyruvate kinase PykA (enzyme, UniProt P80885 1-585, looked up)
chain: MRKTKIVCTIGPASESIEMLTKLMESGMNVARLNFSHGDFEEHGARIKNIREASKKLGKNVGILLDTKGPEIRTHTMENGGIELETGKELIISMDEVVGTTDKISVTYEGLVHDVEQGSTILLDDGLIGLEVLDVDAAKREIKTKVLNNGTLKNKKGVNVPGVSVNLPGITEKDARDIVFGIEQGVDFIAPSFIRRSTDVLEIRELLEEHNAQDIQIIPKIENQEGVDNIDAILEVSDGLMVARGDLGVEIPAEEVPLVQKELIKKCNALGKPVITATQMLDSMQRNPRPTRAEASDVANAIFDGTDAIMLSGETAAGSYPVEAVQTMHNIASRSEEALNYKEILSKRRDQVGMTITDAIGQSVAHTAINLNAAAIVTPTESGHTARMIAKYRPQAPIVAVTVNDSISRKLALVSGVFAESGQNASSTDEMLEDAVQKSLNSGIVKHGDLIVITAGTVGESGTTNLMKVHTVGDIIAKGQGIGRKSAYGPVVVAQNAKEAEQKMTDGAVLVTKSTDRDMIASLEKASALITEEGGLTSHAAVVGLSLGIPVIVGLENATSILTDGQDITVDASRGAVYQGRASVL
notes: Pyruvate kinase PykA of Bacillus subtilis; 1755 bp fragment carrying the pykA gene amplified from genomic DNA and cloned in p2CT; theoretical monomer mass 62,314.9 Da; The forward primer PyKAF starts at the codon for Arg2 (AGA AAA ACT ...), so the first methionine is probably absent; A few vector residues probably remain after TEV cleavage; also called full length PykA; BsuPykA; source: E. coli …
For B2, the “stoichiometry N” value [1] was 4.

B3: PykA (Bacillus subtilis subsp. subtilis str. 168) (protein)
chain: RKTKIVCTIGPASESIEMLTKLMESGMNVARLNFSHGDFEEHGARIKNIREASKKLGKNVGILLDTKGPEIRTHTMENGGIELETGKELIISMDEVVGTTDKISVTYEGLVHDVEQGSTILLDDGLIGLEVLDVDAAKREIKTKVLNNGTLKNKKGVNVPGVSVNLPGITEKDARDIVFGIEQGVDFIAPSFIRRSTDVLEIRELLEEHNAQDIQIIPKIENQEGVDNIDAILEVSDGLMVARGDLGVEIPAEEVPLVQKELIKKCNALGKPVITATQMLDSMQRNPRPTRAEASDVANAIFDGTDAIMLSGETAAGSYPVEAVQTMHNIASRSEEALNYKEILSKRRDQVGMTITDAIGQSVAHTAINLNAAAIVTPTESGHTARMIAKYRPQAPIVAVTVNDSISRKLALVSGVFAESGQNASSTDEMLEDAVQKSLNSGIVKHGDLIVITAGTVGESGTTNLMKVHTVGDIIAKGQGIGRKSAYGPVVVAQNAKEAEQKMTDGAVLVTKSTDRDMIASLEKASALITEEGGLTSHAAVVGLSLGIPVIVGLENATSILTDGQDITVDASRGAVYQGRASVL
notes: full length, 585 residues (1755 bp); N-terminal His-MBP tag removed by TEV; E. coli Rosetta(DE3); homotetramer
Molecule B3 has a K0.5 (purified protein) of 2.7 mM.
